The text below walks through data of patent US10976317B2, “Systematic discovery, maturation and extension of peptide binders to proteins” (Roche Sequencing Solutions, Inc., priority 2013, dated 2021).

The target of this experiment is T1, human prostate specific antigen (PSA) (Homo sapiens, UniProt P07288).
T1 construct: biotin (chemical label, NHS-PEG4-biotin on amines)
T1 sequence (P07288 25-261): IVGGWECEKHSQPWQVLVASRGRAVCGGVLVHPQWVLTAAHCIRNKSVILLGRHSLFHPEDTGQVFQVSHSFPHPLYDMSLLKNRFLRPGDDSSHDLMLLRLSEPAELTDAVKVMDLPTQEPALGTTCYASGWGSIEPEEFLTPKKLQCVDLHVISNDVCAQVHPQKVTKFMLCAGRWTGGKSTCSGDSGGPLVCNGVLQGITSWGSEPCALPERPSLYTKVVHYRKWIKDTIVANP
Briefly: PSA binding assay on 5-mer peptide array (biotin-labelled PSA, Streptavidin Cy5 staining, fluorescence signal). As to conditions: 5-mer Array; rank in the list of 405 sequences with the highest average signal intensity; PSA 100 ng/ml, 25° C., 12 hrs. From the text: Array Design: 5-mer array was designed by using all combinations of 18 natural amino acids excluding cysteine and methionine, any dimer or a longer repeat of the same amino acid, as well as any peptide containing HR, RH, HK, KH, RK, KR, HP, and PQ sequences to create a library of 1,360,732 unique peptides. Extension Arrays were designed by extending sequences selected from 5-mer arrays experiments by two amino acids from both N- and C-terminus using all 20 natural amino acids. Double Substitution/Deletion Arrays were designed by extension of sequences identified in the extension array experiments with glycine (G) amino acid to make them 11-mer peptides and creating a library that includes all possible single- and double substitution/deletion variants of the original sequence.
Array Synthesis: 5-mer Arrays were synthesized with 5 cycles of synthesis using a mixture of G and S amino acids in a 3:1 ratio, respectively at the N- and C-terminus of each of the 5-mer peptide. Extension and Double Substitution/Deletion Arrays were synthesized directly without using flanking wobble synthesis.
Binding Assay: PSA labelled with biotin using EZ-Link NHS-PEG4-biotinylation kit (Thermo Fisher Sci., Inc. Rockford, Ill.) was incubated in SecureSeal hybridization chamber (Grace Bio-Labs, Bend, Ore.) at concentration 100 ng/ml in 1×TE binding buffer with 1% alkali soluble casein at 25° C. for 12 hrs. Array was washed 3× with 1×TE buffer and stained with Streptavidin Cy5 in 1× binding buffer with 1% alkali soluble casein at 25° C. for 1 hr, and washed 3× with 1×TE buffer and finally with 0.1×TE buffer and scanned using a 2 micrometer MS200 scanner (Roche/Nimblegen, Madison, Wis.).
Data analysis: Image analysis and signal extraction performed using NimbleGen DEVA software, and peptides with fluorescent signal are identified. The 5-mer sequences for the binding peptides are identified and clustered based on distances using the standard BLOSUM 62 substitution matrix as implemented by an R package ‘PEPLIB’ (see, White et al., 2013, cited above). The distances of the 5-mer peptides are plotted on the first two components of a PCA plot. Consensus motifs for each cluster are reported in the graph.
On to WEVHL, for which the “rank by binding signal to PSA” value came to 28. Turning to WTVYA, the “rank by binding signal to PSA” value was found to be 3.

Consider RSILY, for which the “rank by binding signal to PSA” value came to 307. With FEVYL the figure was 1.
